Test [1] has as its target T1, human LAMP1 at the cell surface (human, UniProt P11279 29-417).
T1 construct: native on tumour cells (PDX, Colo205, SW480, LS174T) or from the cloned CDS NM_005561.3 in HEK293 and HCT116; signal peptide 1-28 left out; also called huLAMP1; full length human LAMP1
T1 sequence: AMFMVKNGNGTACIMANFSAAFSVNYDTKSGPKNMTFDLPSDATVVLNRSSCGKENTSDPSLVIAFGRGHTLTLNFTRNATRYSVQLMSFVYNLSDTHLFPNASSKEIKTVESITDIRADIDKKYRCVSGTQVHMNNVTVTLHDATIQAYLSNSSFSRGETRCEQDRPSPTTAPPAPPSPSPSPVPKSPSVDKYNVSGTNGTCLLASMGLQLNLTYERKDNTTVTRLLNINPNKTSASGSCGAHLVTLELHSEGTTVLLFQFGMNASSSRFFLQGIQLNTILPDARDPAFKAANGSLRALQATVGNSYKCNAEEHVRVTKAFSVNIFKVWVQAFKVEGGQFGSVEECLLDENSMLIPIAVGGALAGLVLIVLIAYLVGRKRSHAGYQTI
Nature of the test: flow cytometry, HCT116 stable clones. Here is the method:
(§1) 100 μL/well of goat anti-mouse IgG conjugated with Alexa647 (Invitrogen; # A2135) was added for 45 min at 4° C. and washed three times with PBS 1% BSA. The antibody binding was evaluated after centrifugation and re-suspension of cells by adding 200 μl/well PBS 1% BSA and read using Guava® easyCyte™ 8HT Flow Cytometry System. EC50 values were estimated using BIOST@T-SPEED software.
On the technique in general: In flow cytometry, cells or beads pass a laser one at a time.

For test [2], the target named is T2, cynomolgus monkey LAMP1 at the cell surface (cynomolgus monkey, UniProt P11279 29-417 (human entry)).
T2 construct: also called cynoLAMP1; cynomolgus LAMP1
T2 chain: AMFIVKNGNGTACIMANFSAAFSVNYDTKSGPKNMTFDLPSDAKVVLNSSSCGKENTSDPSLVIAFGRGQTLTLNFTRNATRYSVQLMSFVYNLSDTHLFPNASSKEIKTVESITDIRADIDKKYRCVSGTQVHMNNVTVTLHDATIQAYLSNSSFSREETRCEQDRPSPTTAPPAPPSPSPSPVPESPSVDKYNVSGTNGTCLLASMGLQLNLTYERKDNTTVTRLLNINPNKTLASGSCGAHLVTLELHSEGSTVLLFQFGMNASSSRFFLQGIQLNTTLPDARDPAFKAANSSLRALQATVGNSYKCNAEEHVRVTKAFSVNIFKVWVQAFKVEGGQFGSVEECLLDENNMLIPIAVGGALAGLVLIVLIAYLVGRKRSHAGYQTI
The test is described as follows: flow cytometry, HCT116 stable clones. Here is the method:
as §1

Test [3] has as its target T2, cynomolgus monkey LAMP1 at the cell …. Nature of the test: flow cytometry, HEK293 cynoLAMP1 clone 44.
Test [4] shares this target. Nature of the test: flow cytometry, HCT116 stable clones; cynomolgus LAMP1 on recombinant HCT116 stable clones. The method, then: (§2) HCT116 cells were infected by a lentiviral vector allowing stable integration of the human or the cynomolgus LAMP1 CDS in genomic DNA of cells. Individual clones with different densities of human or cynomolgus LAMP1 cell surface localization were derived from a pool of HCT116 infected cells. […] 100 μL/well of goat anti-human IgG conjugated with Alexa488 (Invitrogen; # A11013) was added for 1 h at 4° C. and washed two times with PBS 1% BSA. The antibody binding was evaluated after centrifugation and resuspension of cells in 100 μl fixing solution (paraformaldehyde at 4% in PBS). Samples were read using Galaxy® Flow Cytometry System (Partec). EC50 values were estimated using BIOST@T-SPEED software.

In test [5] the target is T1, human LAMP1 at the cell surface. Nature of the test: flow cytometry, HCT116 stable clones; human LAMP1 on recombinant HCT116 stable clones. The method, then:
as §2

The target of the next test is T3, cLAMP1::histag (cynomolgus monkey, UniProt P11279 29-380 (human entry)).
T3 construct: extracellular domain with C-terminal tag that includes 6 His; also called cynomolgus LAMP1 (27-380); cynomolgus monkey LAMP1 protein
T3 chain: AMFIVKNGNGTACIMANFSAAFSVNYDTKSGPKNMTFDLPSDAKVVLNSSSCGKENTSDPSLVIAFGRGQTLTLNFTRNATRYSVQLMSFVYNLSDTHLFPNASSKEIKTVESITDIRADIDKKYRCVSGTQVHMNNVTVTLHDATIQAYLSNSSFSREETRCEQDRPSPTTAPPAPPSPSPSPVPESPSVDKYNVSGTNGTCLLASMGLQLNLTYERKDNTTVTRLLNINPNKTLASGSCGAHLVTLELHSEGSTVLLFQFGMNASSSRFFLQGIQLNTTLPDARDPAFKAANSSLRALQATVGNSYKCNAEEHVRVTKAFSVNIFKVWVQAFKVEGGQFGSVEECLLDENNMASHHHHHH
Nature of the test: ELISA on coated recombinant LAMP1 extracellular domain, detected with anti-mouse IgG-HRP; antibody concentration not given. The source says:
The antibody binding was visualized by adding TMB-H₂O₂ buffer and read at a wavelength of 450 nm.
In general terms: In an ELISA, binding on a coated surface is turned into a signal by an enzyme label.

The next test deals with T4, hLAMP1_ΔGYQTI (human, UniProt P11279 29-412).
T4 construct: also called pXL5626
T4 sequence: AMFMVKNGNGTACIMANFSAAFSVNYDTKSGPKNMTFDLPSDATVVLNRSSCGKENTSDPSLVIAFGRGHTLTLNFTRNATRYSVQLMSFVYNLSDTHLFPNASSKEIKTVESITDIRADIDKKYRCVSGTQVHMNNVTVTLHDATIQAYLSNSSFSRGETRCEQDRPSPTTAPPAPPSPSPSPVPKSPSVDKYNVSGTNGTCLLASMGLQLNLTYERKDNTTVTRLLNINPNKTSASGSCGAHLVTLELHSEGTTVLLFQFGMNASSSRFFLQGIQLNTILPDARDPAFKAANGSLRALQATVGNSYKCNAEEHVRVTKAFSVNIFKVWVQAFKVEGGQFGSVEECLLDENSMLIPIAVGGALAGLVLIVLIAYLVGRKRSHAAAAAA
Nature of the test: flow cytometry, transfected 293-F cells, experiment 1.

B1: MAb2 (antibody, mouse IgG1, kappa)
heavy: QVQLQQSAAELARPGASVKMSCKASGYTFTSYTMHWVKQRPGQGLEWIGYFNPSSGYPEYNQKFKDKTTLTADKSSNTAFIQLNSLTSEDSAVYYCSRGYYYGSRGYALDFWGQGASVTVSSAKTTPPSVYPLAPGSAAQTNSMVTLGCLVKGYFPEPVTVTWNSGSLSSGVHTFPAVLQSDLYTLSSSVTVPSSTWPSETVTCNVAHPASSTKVDKKIVPRDCGCKPCICTVPEVSSVFIFPPKPKDVLTITLTPKVTCVVVDISKDDPEVQFSWFVDDVEVHTAQTQPREEQFNSTFRSVSELPIMHQDWLNGKEFKCRVNSAAFPAPIEKTISKTKGRPKAPQVYTIPPPKEQMAKDKVSLTCMITDFFPEDITVEWQWNGQPAENYKNTQPIMDTDGSYFVYSKLNVQKSNWEAGNTFTCSVLHEGLHNHHTEKSLSHSPGK
light: NIVLTQSPVSLAVSLGQRATISCRASESVDINGNTFMHWYQQKPGQSPKLVIYAASNIESGVPARFSGSGSSTDFTFTIDPVEADDVATYYCQQNIEDPWTFGGGTKVEIKRADAAPTVSIFPPSSEQLTSGGASVVCFLNNFYPKDINVKWKIDGSERQNGVLNSWTDQDSKDSTYSMSSTLTLTKDEYERHNSYTCEATHKTSTSPIVKSFNRNEC
notes: murine monoclonal IgG, kappa, from hybridoma; also called murine MAb2
B1: the EC50 in test [1] stood at 6.3 nM; in test [2], 6.6 nM.

B2: huMAb1_1 (antibody, human IgG1, kappa)
heavy: not shown
light: DIQMTQSPSSLSASVGDRVTITCKASQDIDRYMAWYQDKPGKAPRLLIHDTSTLQSGVPSRFSGSGSGRDYTLTISNLEPEDFATYYCLQYDNLWTFGGGTKVEIKRTVAAPSVFIFPPSDEQLKSGTASVVCLLNNFYPREAKVQWKVDNALQSGNSQESVTEQDSKDSTYSLSSTLTLSKADYEKHKVYACEVTHQGLSSPVTKSFNRGEC
notes: humanized, VH1-huIgG1 and VL1-huCk
Turning to B2, the EC50 in test [3] came to 30.1 nM.

B3: MAb1 (antibody, mouse IgG2a, kappa)
heavy: QVQLQQSGAELVKPGASVKMSCKASGYIFTNYNIHWVKKSPGQGLEWIGAIYPGNGDAPYSQKFKDKATLTADKSSSTTYMQLSRLTSEDSAVYYCVRANWDVAFAYWGQGTLVSVSAAKTTAPSVYPLAPVCGDTTGSSVTLGCLVKGYFPEPVTLTWNSGSLSSGVHTFPAVLQSDLYTLSSSVTVTSSTWPSQSITCNVAHPASSTKVDKKIEPRGPTIKPCPPCKCPAPNLLGGPSVFIFPPKIKDVLMISLSPIVTCVVVDVSEDDPDVQISWFVNNVEVHTAQTQTHREDYNSTLRVVSALPIQHQDWMSGKEFKCKVNNKDLPAPIERTISKPKGSVRAPQVYVLPPPEEEMTKKQVTLTCMVTDFMPEDIYVEWTNNGKTELNYKNTEPVLDSDGSYFMYSKLRVEKKNWVERNSYSCSVVHEGLHNHHTTKSFSRTPGK
light: DIQMTQSPPSLSASLGGKVTITCKASQDIDRYMAWYQDKPGKGPRLLIHDTSTLQPGIPSRFSGSGSGRDYSFSISNLEPEDIATYYCLQYDNLWTFGGGTKLEIKRADAAPTVSIFPPSSEQLTSGGASVVCFLNNFYPKDINVKWKIDGSERQNGVLNSWTDQDSKDSTYSMSSTLTLTKDEYERHNSYTCEATHKTSTSPIVKSFNRNEC
notes: murine monoclonal IgG, kappa, from hybridoma; also called murine MAb1
With B3, the figures for the EC50 in test [4] and in test [5] were 5.5 nM and 4.9 nM, respectively. The binding result with cLAMP1::histag is recorded as “binds”. The mean fluorescence in the test with hLAMP1_ΔGYQTI is 1750.

The EC50 is the concentration at which the effect is half-maximal.
